Molecular target: human C3b (human, UniProt P01024 23-667; P01024 749-1663, limits assumed)
Test: cell-based or functional assay

Chain of human C3b (P01024 23-667 limits assumed, form in doubt, chain 1 of 2): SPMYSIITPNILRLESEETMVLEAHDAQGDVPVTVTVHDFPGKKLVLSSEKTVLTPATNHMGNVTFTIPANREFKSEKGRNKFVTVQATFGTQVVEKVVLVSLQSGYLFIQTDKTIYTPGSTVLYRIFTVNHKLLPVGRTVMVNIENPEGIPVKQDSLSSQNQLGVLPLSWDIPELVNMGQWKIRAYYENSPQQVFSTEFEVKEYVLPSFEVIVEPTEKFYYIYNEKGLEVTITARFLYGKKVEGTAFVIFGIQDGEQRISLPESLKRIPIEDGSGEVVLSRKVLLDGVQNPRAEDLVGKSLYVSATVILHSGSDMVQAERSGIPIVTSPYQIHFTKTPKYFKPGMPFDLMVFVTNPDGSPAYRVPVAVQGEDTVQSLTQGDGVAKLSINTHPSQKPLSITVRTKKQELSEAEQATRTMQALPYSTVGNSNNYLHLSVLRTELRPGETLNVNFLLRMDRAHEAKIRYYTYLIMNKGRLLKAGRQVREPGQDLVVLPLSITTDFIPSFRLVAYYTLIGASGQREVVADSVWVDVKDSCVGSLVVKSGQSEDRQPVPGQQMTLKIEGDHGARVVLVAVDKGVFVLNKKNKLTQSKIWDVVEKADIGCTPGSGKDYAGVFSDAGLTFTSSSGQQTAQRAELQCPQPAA
Chain of human C3b (P01024 749-1663 limits assumed, form in doubt, chain 2 of 2): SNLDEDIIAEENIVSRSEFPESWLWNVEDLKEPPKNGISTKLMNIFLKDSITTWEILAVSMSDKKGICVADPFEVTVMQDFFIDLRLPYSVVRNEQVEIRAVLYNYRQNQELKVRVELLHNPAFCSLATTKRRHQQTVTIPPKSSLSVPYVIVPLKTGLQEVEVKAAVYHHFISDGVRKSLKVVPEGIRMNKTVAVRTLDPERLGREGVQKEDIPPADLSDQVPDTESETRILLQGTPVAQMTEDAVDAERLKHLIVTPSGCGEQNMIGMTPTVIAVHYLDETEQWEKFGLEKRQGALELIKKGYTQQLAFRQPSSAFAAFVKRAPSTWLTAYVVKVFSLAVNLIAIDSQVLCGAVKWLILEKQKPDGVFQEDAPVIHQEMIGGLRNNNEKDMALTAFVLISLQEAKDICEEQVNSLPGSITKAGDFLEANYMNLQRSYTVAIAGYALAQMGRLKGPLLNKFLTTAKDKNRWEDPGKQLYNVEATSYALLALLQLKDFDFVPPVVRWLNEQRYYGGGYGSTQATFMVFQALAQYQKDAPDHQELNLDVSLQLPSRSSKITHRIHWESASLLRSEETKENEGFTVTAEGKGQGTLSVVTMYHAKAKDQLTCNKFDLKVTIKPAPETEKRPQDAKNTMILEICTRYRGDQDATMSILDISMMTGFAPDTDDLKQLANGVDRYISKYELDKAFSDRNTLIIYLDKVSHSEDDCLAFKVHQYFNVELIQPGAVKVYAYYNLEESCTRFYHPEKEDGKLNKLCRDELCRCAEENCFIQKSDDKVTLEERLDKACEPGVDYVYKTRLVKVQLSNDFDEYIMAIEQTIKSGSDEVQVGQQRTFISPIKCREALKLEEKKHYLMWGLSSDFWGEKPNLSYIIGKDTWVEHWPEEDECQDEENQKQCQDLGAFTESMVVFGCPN

- IC50 of inhibition of MAC formation in zymosan activated human serum (Wieslab Complement system Screen kit ELISA, FIG. 9): 125 nM
B1: small polypeptide comprising CCPs 8-10 of CR1 (SEQ ID NO:3) (receptor)
chain: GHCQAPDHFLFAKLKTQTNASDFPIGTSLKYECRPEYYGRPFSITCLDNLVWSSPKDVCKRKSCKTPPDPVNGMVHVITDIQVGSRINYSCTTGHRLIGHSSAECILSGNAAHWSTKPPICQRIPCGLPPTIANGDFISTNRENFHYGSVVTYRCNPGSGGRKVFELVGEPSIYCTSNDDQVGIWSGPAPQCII

Source: US20260217791A1 (COMPLEMENT THERAPEUTICS, published 2026)
